From PMC11417369, “DNA sequence and chromatin differentiate sequence-specific transcription factor binding in the human malaria parasite Plasmodium falciparum”

T1: AP2-G D1 (Plasmodium falciparum, UniProt Q8I5I9 2123-2245)
T1 sequence: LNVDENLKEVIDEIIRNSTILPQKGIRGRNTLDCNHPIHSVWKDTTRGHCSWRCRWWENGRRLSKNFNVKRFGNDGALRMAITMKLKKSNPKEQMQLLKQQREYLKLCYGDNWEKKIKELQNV

B1: XGTACX_negctrl_site402 (dsDNA)
DNA 1: AAAAGAATAATAATTTATGTATATTAATTAAAGAAT
DNA 2: ATTCTTTAATTAATATACATAAATTATTATTCTTTT
B2: XGTACX_negctrl_site550 (dsDNA)
DNA 1: ACGTAATTAATTCATCAGATATAATTAATAATAATA
DNA 2: TATTATTATTAATTATATCTGATGAATTAATTACGT
B3: XGTACX_negctrl_site205 (dsDNA)
DNA 1: AACAATATATTGATATTATTTTAAGTGATTATATAT
DNA 2: ATATATAATCACTTAAAATAATATCAATATATTGTT
B4: XGTACX_negctrl_site397 (dsDNA)
DNA 1: TTTTTTTTCAATCTCTATATATTAAGGTTTATATTT
DNA 2: AAATATAAACCTTAATATATAGAGATTGAAAAAAAA
B5: XGTACX_negctrl_site414 (dsDNA)
DNA 1: TATCTTTTTATTTTTTATTTTTTTTTTATAATTTAC
DNA 2: GTAAATTATAAAAAAAAAATAAAAAATAAAAAGATA
B6: XGTACX_negctrl_site431 (dsDNA)
DNA 1: TTATTAAAATATACATTTGAAAGTAATCTTATTTAA
DNA 2: TTAAATAAGATTACTTTCAAATGTATATTTTAATAA
B7: XGTACX_negctrl_site44 (dsDNA)
DNA 1: AAATTAAAATAATAATTCTACAAATTAATTTATCAT
DNA 2: ATGATAAATTAATTTGTAGAATTATTATTTTAATTT
B8: XGTACX_negctrl_site280 (dsDNA)
DNA 1: AATTAATATATAAATAATAAAAAAAAATATATAAAC
DNA 2: GTTTATATATTTTTTTTTATTATTTATATATTAATT
B9: XGTACX_negctrl_site425 (dsDNA)
DNA 1: ATTTGTATATAATATATATAATTTTTTTTTTTTGTT
DNA 2: AACAAAAAAAAAAAATTATATATATTATATACAAAT
B10: XGTACX_negctrl_site606 (dsDNA)
DNA 1: TTTTTATATATATGTATAAATATTTTTTCTATTTAT
DNA 2: ATAAATAGAAAAAATATTTATACATATATATAAAAA
B11: XGTACX_negctrl_site68 (dsDNA)
DNA 1: AATATAGAAATAAATATATCACATTTGTGTTTAAAC
DNA 2: GTTTAAACACAAATGTGATATATTTATTTCTATATT
B12: XGTACX_negctrl_site390 (dsDNA)
DNA 1: TTATGAATATTGATGTATAAAAAAATATATATGTTA
DNA 2: TAACATATATATTTTTTTATACATCAATATTCATAA
B13: XGTACX_negctrl_site342 (dsDNA)
DNA 1: ATGAACGGAAAAATATATATAAATATATATATCATG
DNA 2: CATGATATATATATTTATATATATTTTTCCGTTCAT
B14: XGTACX_negctrl_site434 (dsDNA)
DNA 1: ATGCAACTATATATATATATTATATGTATGAATAAT
DNA 2: ATTATTCATACATATAATATATATATATAGTTGCAT
B15: XGTACX_negctrl_site296 (dsDNA)
DNA 1: AATGAATTTAATTCTACTATTTTTTTTTTAAATATT
DNA 2: AATATTTAAAAAAAAAATAGTAGAATTAAATTCATT
B16: XGTACX_negctrl_site114 (dsDNA)
DNA 1: TATTATTGTCATTTTTTTTTTTTTTTTTTCTATTTC
DNA 2: GAAATAGAAAAAAAAAAAAAAAAAATGACAATAATA
B17: XGTACX_negctrl_site466 (dsDNA)
DNA 1: TTTATATTTATATAAATATAATATATATGAATTATA
DNA 2: TATAATTCATATATATTATATTTATATAAATATAAA
B18: XGTACX_negctrl_site55 (dsDNA)
DNA 1: ATGGAATATTTCATGATTTTTTTAATTTTTTTATTG
DNA 2: CAATAAAAAAATTAAAAAAATCATGAAATATTCCAT
B19: XGTACX_negctrl_site42 (dsDNA)
DNA 1: AATGAATAACAATACTATATGATTTTTAATACATTA
DNA 2: TAATGTATTAAAAATCATATAGTATTGTTATTCATT
B20: XGTACX_negctrl_site407 (dsDNA)
DNA 1: AATATATATATAAATAATATACCTATATATTTTTTG
DNA 2: CAAAAAATATATAGGTATATTATTTATATATATATT
B21: XGTACX_negctrl_site340 (dsDNA)
DNA 1: AAAAAATAAATAAACATAAATAAATAAATAAATATA
DNA 2: TATATTTATTTATTTATTTATGTTTATTTATTTTTT
B22: XGTACX_negctrl_site207 (dsDNA)
DNA 1: TTTTTATTTAATATTTTAAAAAAAAATCATTTTTAA
DNA 2: TTAAAAATGATTTTTTTTTAAAATATTAAATAAAAA
B23: XGTACX_negctrl_site452 (dsDNA)
DNA 1: TATCTCTACAAAATTTTATTCATTATTCATGTTATA
DNA 2: TATAACATGAATAATGAATAAAATTTTGTAGAGATA
B24: XGTACX_negctrl_site318 (dsDNA)
DNA 1: GAAAAAAGGAAATAAAGAAAAAAAAAAATGAAATAT
DNA 2: ATATTTCATTTTTTTTTTTCTTTATTTCCTTTTTTC
B25: XGTACX_negctrl_site367 (dsDNA)
DNA 1: ATAAAATGATGTATCTGTGTATGTTTATTTTGTTTT
DNA 2: AAAACAAAATAAACATACACAGATACATCATTTTAT
B26: XGTACX_negctrl_site482 (dsDNA)
DNA 1: AGAAAAAACAAAAGAGAAATGAAAAAAAAAAAAAAA
DNA 2: TTTTTTTTTTTTTTTCATTTCTCTTTTGTTTTTTCT
B27: XGTACX_negctrl_site148 (dsDNA)
DNA 1: TTAAAACATATTTTGAATTAATATATTTTAATATTA
DNA 2: TAATATTAAAATATATTAATTCAAAATATGTTTTAA
B28: XGTACX_negctrl_site85 (dsDNA)
DNA 1: TACATATTTTGTATATATTATTTATTTTATTAGTTT
DNA 2: AAACTAATAAAATAAATAATATATACAAAATATGTA
B29: XGTACX_negctrl_site612 (dsDNA)
DNA 1: TAAACATTTTTAATTTTGTAAAATTTTAAATAAAAA
DNA 2: TTTTTATTTAAAATTTTACAAAATTAAAAATGTTTA
B30: XGTACX_negctrl_site539 (dsDNA)
DNA 1: TAAGGATAAATAAAATGAAATGAAATAAATAAATGA
DNA 2: TCATTTATTTATTTCATTTCATTTTATTTATCCTTA
B31: XGTACX_negctrl_site479 (dsDNA)
DNA 1: AATCAATTAATATTAGCATAAAATTTTATTATTTTG
DNA 2: CAAAATAATAAAATTTTATGCTAATATTAATTGATT
B32: XGTACX_negctrl_site298 (dsDNA)
DNA 1: AGTTTTTATTAAAACAAAATTTAATTATAACGTTGA
DNA 2: TCAACGTTATAATTAAATTTTGTTTTAATAAAAACT

Molecular target: T1, AP2-G D1
Test: gcPBM; about 25 ug protein; PBS, 1% milk, 0.2 mg/ml BSA, salmon testes DNA, 0.03% Triton X-100
Conditions: tags: N-terminal GST (pGEX-4T-1), kept; label: surface-attached array probe

Row | Binder | binding signal
1 | B1 | 9.4 ln median PBM intensity, better of two orientations
2 | B2 | 9.41 ln median PBM intensity, better of two orientations
3 | B3 | 9.41 ln median PBM intensity, better of two orientations
4 | B4 | 9.41 ln median PBM intensity, better of two orientations
5 | B5 | 9.42 ln median PBM intensity, better of two orientations
6 | B6 | 9.42 ln median PBM intensity, better of two orientations
7 | B7 | 9.42 ln median PBM intensity, better of two orientations
8 | B8 | 9.42 ln median PBM intensity, better of two orientations
9 | B9 | 9.44 ln median PBM intensity, better of two orientations
10 | B10 | 9.44 ln median PBM intensity, better of two orientations
11 | B11 | 9.45 ln median PBM intensity, better of two orientations
12 | B12 | 9.46 ln median PBM intensity, better of two orientations
13 | B13 | 9.47 ln median PBM intensity, better of two orientations
14 | B14 | 9.5 ln median PBM intensity, better of two orientations
15 | B15 | 9.5 ln median PBM intensity, better of two orientations
16 | B16 | 9.51 ln median PBM intensity, better of two orientations

Row | Binder | binding signal
17 | B17 | 9.51 ln median PBM intensity, better of two orientations
18 | B18 | 9.52 ln median PBM intensity, better of two orientations
19 | B19 | 9.52 ln median PBM intensity, better of two orientations
20 | B20 | 9.52 ln median PBM intensity, better of two orientations
21 | B21 | 9.52 ln median PBM intensity, better of two orientations
22 | B22 | 9.53 ln median PBM intensity, better of two orientations
23 | B23 | 9.53 ln median PBM intensity, better of two orientations
24 | B24 | 9.53 ln median PBM intensity, better of two orientations
25 | B25 | 9.53 ln median PBM intensity, better of two orientations
26 | B26 | 9.54 ln median PBM intensity, better of two orientations
27 | B27 | 9.55 ln median PBM intensity, better of two orientations
28 | B28 | 9.55 ln median PBM intensity, better of two orientations
29 | B29 | 9.56 ln median PBM intensity, better of two orientations
30 | B30 | 9.56 ln median PBM intensity, better of two orientations
31 | B31 | 9.57 ln median PBM intensity, better of two orientations
32 | B32 | 9.58 ln median PBM intensity, better of two orientations
